From publication PMC12095755 (Nature Communications, 2025)

Molecular target: human MDM2 (Homo sapiens, UniProt Q00987)
Experiment: MDM2 AlphaLISA competition assay
Format: binding
Details: up to 50 µM

Chain of human MDM2 (Q00987 whole entry): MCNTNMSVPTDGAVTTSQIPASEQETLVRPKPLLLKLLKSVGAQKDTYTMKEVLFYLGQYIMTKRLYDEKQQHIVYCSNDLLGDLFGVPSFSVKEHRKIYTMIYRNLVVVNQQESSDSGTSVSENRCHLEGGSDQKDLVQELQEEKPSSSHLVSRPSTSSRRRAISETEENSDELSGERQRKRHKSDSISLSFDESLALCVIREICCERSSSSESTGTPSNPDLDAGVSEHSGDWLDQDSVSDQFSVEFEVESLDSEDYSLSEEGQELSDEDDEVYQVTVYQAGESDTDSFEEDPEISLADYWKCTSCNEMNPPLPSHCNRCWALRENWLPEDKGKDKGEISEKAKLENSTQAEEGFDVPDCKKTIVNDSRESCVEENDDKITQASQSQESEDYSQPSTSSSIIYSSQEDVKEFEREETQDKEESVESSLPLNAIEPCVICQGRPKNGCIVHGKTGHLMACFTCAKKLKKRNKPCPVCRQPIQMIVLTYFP

F-S-D-L-W (FSDLW) [p53 motif]
activity in the AlphaLISA assay: no activity
